{"source": "the DeepSol protein solubility set"}
{"assay": "soluble on expression in E. coli; label from the status in PepcDB or PDB records"}
{"sequence": "MFDFNDSMVSNAIIKVVGVGGGGGNAVQHMCEEVSDVEFFALNTDGQALSKSKVQNILQIGTNLTKGLGAGANPEIGKRAATEDRAKIEQLLEGADMVFITAGMGGGTGTGGAPVVAEVAKEMGILTVAVVTKPFPFEGPRRMKAAEQGIDELTKHVDSIITVPNEKLLSVLGKGASLIDAFNAANDVLGNAVKGVSELITKPGLINVDFADVRAVMTNMGLAMMGMGEASGENRAREAAEAAISSPLLEDINLDGAKGVIVNITAGMDMSIGEFEEVGEVIRSFISDEAIVIAGTVIDPDMSDSMKVTVVVTGIEKVAMKRGFGVEKTSSLQQSASSFSNKTSAPFLRKETEVVTGASNAPKTDSDDVNKSDIPSFLRRR", "soluble on expression in E. coli": "not soluble"}
{"sequence": "MFDVLMYLFETYIHNEAELRVDQDRLERDLTDAGFDREDIYNALLWLEKLADYQDGLAEPMQLASDPLSMRIYTVEECERLDASCRGFLLFLEQIQVLNLETREMVIERVLALDTAEFDLEDLKWVILMVLFNIPGCENAYQQMEELLFEVNEGMLH", "soluble on expression in E. coli": "not soluble"}
{"sequence": "MFEALKEVLGEINSKLAAVNNELSSKIMSENIVSTRPVAQAQYCGPYKLEKTLGKGQTGLVKTGTHCITGRKVAIKIVNKEKLSESVLQKVEREIAIMKLIEHPHVLHLYDVYENKKYLYLLLEHVSGGELFDYLVRKGRLMSKEARKFFRQIISALDFCHAHNICHRDLKPENLLLDERNNIKVADFGMASLQVEGSMLETSCGSPHYACPEVIRGEKYDGRKADVWSCGVILYALLVGALPFDDDNLRNLLEKVKRGVFHIPHFVPADVQSLLRAMIEVDPGKRYSLADVFKHPWVSGTTKADPELELPMSQVVQTHVIPGEDSIDPDVLRHMNCLGCFKDKQKLINELLSPKHNTEKMVYFLLLDRKRRRPAQEDDTEIVLRGAAQNNDPPKKRTDSSRTSRYPMGSIADGSPINPRKTYGRNQKSGRHSSLGGSPTESPRSSTRDLFGSSSSGSYSARAGEDRDRGRSASRSTNSYHYYTQPVDPQTLAEAARHVRDAQERRESRDSGRGSSRKESKDRSDKSASSSSCKNDASSTSSVPHKYSPPSVMSESVVVSSSTMNSTNSSTNSLIAGNSQTSIGSTSGPWRSKLNNIKNSFLGTPRFHRRKMSNGTAESDSEDSQMIDTTDLVKKSWFGSLASSMSVERDDTHCVPVQGKTLNSIKAELIRAFLQIHELSHSVVGQNCFRVEYKRGPTVGGSVFSRGIKMNVDIIPSPQQVVIAGETPTYVVQFVLLAGPVRRFKRLVEHLSAILQNSTQQRADRQQQAALMVRPRRLSDSSVGSACSDSESNASSINMIARHSDKTETTSATSSDPYGPSPSMRSVGSGTANSYKSPTPHRRNTTAVTASSSSASNRYGPSSSSSGSYSNNADYSYHPEYSQRSNGSSAPKNQYSPGSQRSFAFSMFNKADKV", "soluble on expression in E. coli": "not soluble"}
{"sequence": "MFFERHGGGERAILVHLDGQDPEAREDPQEFQELALSAGAETVAFVSVPRHRPTAKYLVGSGKVEELRDLVKAEQVDLVIFNHILTPSQERNLERVFECRVIDRTGLILDIFAQRARTHEGKLQVELAQLEHMSTRLVRGWTHLERQKGGIGLRGPGETQLETDRRLLRVRLRQIKARLEKVRSQREQARRGRKRADIPSVSLVGYTNAGKSTLFNAVTASDVFAADQLFATLDPTLRRLELDDLGPIVLADTVGFIRHLPHKLVEAFRATLEESSNSDLLLHVIDAHEPERMAQIEQVMVVLGEIGAQDLPILEVYNKLDLLEGVEPQIQRDPDGKPQRVWLSARDGQGLDLLKQAIAELLGEDLFVGTLRLPQRFARLRAQFFQLNAVQKEDHDDEGVSLLAVRLPRAELNRLVSREGMQPSEFIEQHTLQLEHHHHHH", "soluble on expression in E. coli": "soluble"}
{"sequence": "MFIKGVILSSYGVNGYARVKSISNNFCDFINLKNNKVLLKKSNSSSVEVKVVDVNIKGNSLFLKFEEIDTPEAVRPLIGFELWVDDSLASSLKEGEYYLGKLIGYAIVNNNKKLGEVVAFFEYLNSVFLEVRVGIKFFFIPFLSIYIGDINTQEKTIELKVLDLLKLEHHHHHH", "soluble on expression in E. coli": "not soluble"}
{"sequence": "MFKFLMIISMSKHIKRAAKNREDLLEAAVEMFKTHGMMVPLQVIIDHANVGRATFYRNFADRKMLVYALLEQSLVKLKQRTQLYQTYPDGLIRLIQSHVNHLNHLSALMEYWRVLDYSDTSLQALIQQHQRIIQPLIDQAILHKVCRPDFNFEDYRSIVTMLSSSFRGHTEQEQIRMASRVIDLLLNGICLNQEESHG", "soluble on expression in E. coli": "not soluble"}
{"sequence": "MFKKLLHSLFAGLTFMAAVAAVPAHAQEADAQTTVKTAVDDVLATIKGDSDLRSGNMQKVFQLVDQKIVPRADFKRTTQIAMGRFWSQATPEQQQQIQDGFKTLLVRTYAGALANVRNQTVSYKPFRAAADDTDVVVRSTVNNNGEPVALDYRMEKSANGWKVYDINISGLWLSETYKNQFAEVISKRGGVSGLVQFLDERNAQLAKGPAKLEHHHHHH", "soluble on expression in E. coli": "soluble"}
{"sequence": "MFKRLLMVALLVVAPLANAADQTNPYRLMNEAAEKTFNRLKSEQPKIKQSPDYLRTVVREELLPYVQVRYAGALVLGRYYKDSTPAQRDAYFKAFEAYLEQAYGQALAMYNGQNYQIAPEQPLGNADIVSIRVTIVDNGGRPPVRLDFQWRKNSKTGNWQAYDMIAEGVSMITTKQNEWASILRQKGVDGLTQQLESSAKQTITLDQKKLEHHHHHH", "soluble on expression in E. coli": "soluble"}
{"sequence": "MFMFEKPHGMRDTLPGLYETKKKVRRSLTDLIDKWGYQFMETPTLEFYDTVGVQSAIEEQQLFKLLDQDGKTLVLRPDMTGPIARVAASKLLKHGHPLRVGYAANVFRAQEREGGRPAEFEQVGVELIGDGTTSADAEVIALVVGALKNAGLASFKIAIGHAGIADALFVEVLGNVERADVLRRFLYEKNYVGYREHVKSLPLSSIDKSRLLELLELRGGIEVCGRAEEIVDSAQGKSVVDELKALWDILEDYGCTENVRLDLNMVSHMSYYTGILFEVYAENVGFVIGSGGRYNKLLGHFDSPAPATGFGLRIDRLIEALHMKDEPCEIDAVIFSKEQRAQAIAYANEERMKGNKVVLQDLSGIENIDQMTKSFANVTYFIGARKEEQNG", "soluble on expression in E. coli": "not soluble"}
{"sequence": "MFQLPILNFSPQQVAGVCETLEESGDVERLGRFLWSLPVAPAACEALNKNESVLRARAIVAFHGGNYRELYHILENHKFTKESHAKLQALWLEAHYQEAEKLRGRPLGPVDKYRVRKKFPLPRTIWDGEQKTHCFKERTRHLLREWYLQDPYPNPSKKRELAQATGLTPTQVGNWFKNRRQRDRAAAAKNRLQQQVLSQGPGRVLRSEGEGTPEVLGVASSPAASLSSKAATSAISITSSDSECDI", "soluble on expression in E. coli": "soluble"}
{"sequence": "MFQNLLENSKKFWIVLEPYGKFKKMLLRDLRGETHRGETRRGETRRGETHRGETHRGETHRGETHRGETHRGETHRGETYRGETHRGETHRGETHRGKTQNFGGKFKFSVKNILAGNLNFLKKIFWREI", "soluble on expression in E. coli": "not soluble"}
{"sequence": "MFQRLFGRERHANRAITDALYAQIVAAARQTVFYSHWNVPDTPLGRFEMLSLHMFLFQHRLRGEGGVAQEIAQVLIDEFFLDVDHSLRELGIGDVGVPKRMKKLAKMFYGRTAAYDDALDRNDRDGLTAALARNVRPDAGTWPEAPQLADYVADACRQLAAQPSQSIVSGTAVFPLAKGGALEHHHHHH", "soluble on expression in E. coli": "not soluble"}
{"sequence": "MFRKESTILVLGSKVRGAQPGHVLRWRLEHALELSRHTTGPIVVSGKGEAYVMDDWLIRHGVDYRRLIVEPEATSTNENIENAHALLPDTHEWLVVTSDFHKLRTLAWARHLGVPIRVSSAVTKPPFRVNNFVRECFALPHSLLRIAWRRLLAAAALEHHHHHH", "soluble on expression in E. coli": "not soluble"}
{"sequence": "MFSFNMFDHPIPRVFQNRFSTQYRCFSVSMLAGPNDRSDVEKGGKIIMPPSALDQLSRLNITYPMLFKLTNKNSDRMTHCGVLEFVADEGICYLPHWMMQNLLLEEGGLVQVESVNLQVATYSKFQPQSPDFLDITNPKAVLENALRNFACLTTGDVIAINYNEKIYELRVMETKPDKAVSIIECDMNVDFDAPLGYKEPERQVQHEESTEGEADHSGYAGELGFRAFSGSGNRLDGKKKGVEPSPSPIKPGDIKRGIPNYEFKLGKITFIRNSRPLVKKVEEDEAGGRFVAFSGEGQSLRKKGRKP", "soluble on expression in E. coli": "soluble"}
{"sequence": "MFSPQAYLIFNMRKPPFDNIKVRQAVMHAFNRKLVVDNIFFGLGKISTSPFVPTEMFFDKDIPAIPFDMKKARALIKESGINPGDYTIRQLSFPYGATWDRLGEYTKQALEQLGFKVNVESTDAGGWASRTGNWDFDLTTTYSYQYGDPALGVQRLYVTSNIVKGSPFANMQGYSNPESDKLWEQAAAEVDPAKRQELYNKIQALLVAEVANGFLVDME", "soluble on expression in E. coli": "not soluble"}
{"sequence": "MFSSIGWPEIFTVLILGLIIIGPERLPKVIEDVRAAIYAAKKAINNAKEELNGNLGAEFDEFREPINKIASIQRMGPKAVLTKALFDEDENFMDNFDPKKIMASGTEGEAYRERGINPQPAGDSASPQTPSNKESQPKAGFSWDDIT", "soluble on expression in E. coli": "not soluble"}
{"sequence": "MFSTGSGELCDSSAARAGGSMIHPILAKVTQNLTERSREARAAFIARSQAQEKAGKGRTSLSCGNLAHAVAASCSTEKKAILDFTRSNVAIVTSYNDMLSAHQPYQHYPDRIKMVLAEYGHTAQVAGGVPAMCDGVTQGQPGMDMSLFSRDLIAQATALSLSHNVFDATLLLGICDKIAPGQLMGALSYAHLPTAFMPAGLMATGISNEEKVDIRQKYAAGEVGKDALLNMECQAYHAPGTCTFYGTANTNQLVFEAMGLMLPGSAFVHPHSALRQALNDDATVKIASMTQGSAQYRPLYQVVTEKSLLNGIVALLASGGSTNHTIHMLAVARAAGILLTWQDISDLSDVVPLLAKVYPNGPADMNAFQQAGGVPALMKRLHESKLLHSDVTPVFGEFRDQLTLPELVDGELCWKACEGTRDAQVIAASGECFQTTGGTKMLNGNLGRAVIKVSAVKEEQRIIEAPAVVFQCQHQVEAAYQRGELNKDCIVVVTHNGPAANGMPELHKLMPILGNVQKAGFKVALVTDGRLSGASGKIPSAIHVSPEAVRGGAIGLVRDGDLLRLDCTTGTLENLTDMSHRQALALDTERDQQMWGRELFKVMRQAVSSAEQGASFIV", "soluble on expression in E. coli": "not soluble"}
{"sequence": "MFVYYIYTIIKSQSKSTPHHYHPCWSNSAAGLKKWGGFMNIKNNRRRRASRDAIENIFIELLQTKSLNEITVSDICKKAGLNRSTFYANYMDIYQLADTIRETLEDNLNDLYRSEIAGGYNSNDYLPLFRHIKENQPFYNTYFKLGYDNQYKIFKYDTALARDHFGNRFIDYHCEFFKSGITAIIKHWLSNGCLETPEEINGILMSEYRGRKMEET", "soluble on expression in E. coli": "not soluble"}
{"sequence": "MGAAGDAAIGRESRELMSAANVGRTISRIAHQIIEKTALDDPVGPDAPRVVLLGIPTRGVTLANRLAGNITEYSGIHVGHGALDITLYRDDLMIKPPRPLASTSIPAGGIDDALVILVDDVLYSGRSVRSALDALRDVGRPRAVQLAVLVDRGHRELPLRADYVGKNVPTSRSESVHVRLREHDGRDGVVISRGSHHHHHH", "soluble on expression in E. coli": "soluble"}
{"sequence": "MGAIEDVYADLDTDVSIEEFREAVESKVEQMGGLADEETAAMLIAHEIDDGEVNGVADIDSEMDEVKFIAKVTRVGDVRTFDREDADDDDAAAEGRVVNVTVADETDDVRVSLWDEQATAAADDLAPGDVLRIKGRPTDGYNGLEVSADEVELDADEQIDVQIQDEYDAADLSLGVSDVTLVGEVLDTEAVRTFDRDDGSEGRVSNLVVGDETGRVRVTLWDDQADTATDLDAGAVVEIVDGYVREREGSLELHVGDTGAVTPVPDADVSFVPDTTSIDSLEQDDTADIAGVVRSVDPTRTFDRDDGSEGQVRNVRLQDDTGDIRVALWGEKADLDIGPGDEVAALDVEIQDGWQDDIEASAGWQASVIPLSDSTQDDAAAGSDGPDRGLAAFGADSDDEPAATDDAADTQTPHSDTPVEFTGVVVQAQDPLILDDGEETMSVTTDADVTLGQEVTVRGSLDDGRLHADDVTESLEHHHHHH", "soluble on expression in E. coli": "not soluble"}
